Measured values from the Human Domainome abundance scans (Beltran et al. 2025).
± gives the uncertainty stated by the source.

B1: POU domain, class 3, transcription factor 4, residues 280 to 335; numbered along this chain, P49335 (parent)
chain: KKRTSIEVSVKGVLETHFLKCPKPAAQEISSLADSLQLEKEVVRVWFCNRRQKEKR
B2: Tesmin, residues 368 to 403; numbered along this chain, Q9Y4I5 (parent)
chain: KGCNCRRSGCLKNYCECYEAQIMCSSICKCIGCKNY

Variants of: B1
Test: abundance fitness (aPCA) (normalised: wild type 0, dead -1); higher = more abundant; growth selection in yeast, the domain comes from the species named
Conditions: Homo sapiens
For KKRTSIEVSVKGVLETHFLKCPKPAAQEISSLADSLQLEKEVVRVWFCNRRQKEQR [K55Q], the abundance fitness was -0.016 ± 0.48.
For KKRTSIEVSVKGVLETHFLKCPKPAAQEISSLADSLQLEKEVQRVWFCNRRQKEKR [V43Q], the abundance fitness was -0.601 ± 0.3.
KKRTSIEVSVKGVLETHFLKCPKPAAQEISSLADSLQLEKEVTRVWFCNRRQKEKR [V43T] showed an abundance fitness of -0.975 ± 0.2.
KKRTSIEVSVKGVLETHFLKCPKPAAQGISSLADSLQLEKEVVRVWFCNRRQKEKR [E28G] gave an abundance fitness of -0.886 ± 0.16.
In the case of KKRTSIEVSVKGVLETHFLKCPKPAAQLISSLADSLQLEKEVVRVWFCNRRQKEKR [E28L], the abundance fitness is reported as -0.357 ± 0.13.
Variant KKRTSIEVSVKGVLETHFLKCPIPAAQEISSLADSLQLEKEVVRVWFCNRRQKEKR [K23I] has an abundance fitness of -0.369 ± 0.25.
With KKRTSIEVSVKGVLETHFLKCPKPAAQEISSLADSLQLEKEVVRVWFCNRRQKEKN [R56N] the abundance fitness was 0.38 ± 0.48.
With KKRTSIEVSVKGVLETHWLKCPKPAAQEISSLADSLQLEKEVVRVWFCNRRQKEKR [F18W] the abundance fitness was -0.485 ± 0.13.
KKRTSIEVSVKGVLETHFLKCPKPAAQEISWLADSLQLEKEVVRVWFCNRRQKEKR [S31W] gave an abundance fitness of -0.467 ± 0.2.
Variant KKRTSIEVSVKGVLETHFLKCPKPAAQEISSLADSLQLEKEVVRVWFVNRRQKEKR [C48V] has an abundance fitness of 0.058 ± 0.15.
For KKRTSIEVSVKGVLETHFLKCPKPAAQEISSLADSLQLEKEVVRVWFWNRRQKEKR [C48W], the abundance fitness was -0.073 ± 0.16.
Variant KKRTSIEVSVKGVLETHFLKCPKPAAQEISSLADSLQLEKELVRVWFCNRRQKEKR [V42L] has an abundance fitness of -0.122 ± 0.13.
With KKRTSIEVSVKGVLETHFLKCPKPAAQEISSLADSLQLEKESVRVWFCNRRQKEKR [V42S] the abundance fitness was -0.431 ± 0.17.
KKRTSIEVSVKGVLETHFLKCPKPAAQEISSRADSLQLEKEVVRVWFCNRRQKEKR [L32R] gave an abundance fitness of -0.847 ± 0.2.
With KKRTSIEVSVKGVLETHFLKCPKPAKQEISSLADSLQLEKEVVRVWFCNRRQKEKR [A26K] the abundance fitness was -0.415 ± 0.21.
For KKRTSIEVSVKGVLETHFLKEPKPAAQEISSLADSLQLEKEVVRVWFCNRRQKEKR [C21E], the abundance fitness was -0.546 ± 0.28.
Work on KKRTSIEVSVKGVLETHFLKCPKPAAQEISSLADWLQLEKEVVRVWFCNRRQKEKR [S35W] yielded an abundance fitness of -0.707 ± 0.2.
KKRTSIEVSVKGVLETHFLKCPKPAAQEISSLADSLQLEKIVVRVWFCNRRQKEKR [E41I] gave an abundance fitness of -0.828 ± 0.31.
KKRTSIEVSVKGVLETHFLKCPKPAAQEISSLADSLQLEKLVVRVWFCNRRQKEKR [E41L] gave an abundance fitness of -0.955 ± 0.15.
Variant KKRTSIEVSVKGVLETHFLKCPKPAAQEISSLADSLQLAKEVVRVWFCNRRQKEKR [E39A] has an abundance fitness of -0.515 ± 0.21.
In the case of KKRTSIEVSVKGVLETHFLGCPKPAAQEISSLADSLQLEKEVVRVWFCNRRQKEKR [K20G], the abundance fitness is reported as -0.69 ± 0.12.
Variant KKRTSIEVPVKGVLETHFLKCPKPAAQEISSLADSLQLEKEVVRVWFCNRRQKEKR [S9P] has an abundance fitness of -0.335 ± 0.48.
For KKRTSIEVEVKGVLETHFLKCPKPAAQEISSLADSLQLEKEVVRVWFCNRRQKEKR [S9E], the abundance fitness was 0.443 ± 0.27.
With KKRTSIEVSVKGVLETHFFKCPKPAAQEISSLADSLQLEKEVVRVWFCNRRQKEKR [L19F] the abundance fitness was -0.941 ± 0.3.
Variant KKRTSIEVSVKGVLETHFCKCPKPAAQEISSLADSLQLEKEVVRVWFCNRRQKEKR [L19C] has an abundance fitness of -0.385 ± 0.16.
Work on KKRTSIEVSVKGVLETSFLKCPKPAAQEISSLADSLQLEKEVVRVWFCNRRQKEKR [H17S] yielded an abundance fitness of -0.262 ± 0.16.
With KKRTSIEVSVKGVLETHFLKCPKPAAQEISSLADSLQLEKEVVRVWFCNRRQKVKR [E54V] the abundance fitness was -0.634 ± 0.17.
In the case of KKRTSIEVSVKGVLETHFLKCPKPAAQEISSLADSLQLEKEVVRVWFCNRRQQEKR [K53Q], the abundance fitness is reported as -0.258 ± 0.24.
In the case of KKRTSIEVSVKGVLETHFLKCPKPAAVEISSLADSLQLEKEVVRVWFCNRRQKEKR [Q27V], the abundance fitness is reported as -0.434 ± 0.12.
Variant KKRTSIEVSVKGVLETHFLKCPKPAAQEISSLARSLQLEKEVVRVWFCNRRQKEKR [D34R] has an abundance fitness of 0.019 ± 0.12.
Work on KKRTSIEVSLKGVLETHFLKCPKPAAQEISSLADSLQLEKEVVRVWFCNRRQKEKR [V10L] yielded an abundance fitness of -0.472 ± 0.26.
SKRTSIEVSVKGVLETHFLKCPKPAAQEISSLADSLQLEKEVVRVWFCNRRQKEKR [K1S] showed an abundance fitness of -0.132 ± 0.24.
KKRTSIEVSVKGVLETHFLKCPKPAAQEISSLADSLQLEKEVVRNWFCNRRQKEKR [V45N] gave an abundance fitness of 0.373 ± 0.17.
Variant KKRTSIEVSVKGVLETHFLKCPKPAAQEISSLADSLQLEKEVVRKWFCNRRQKEKR [V45K] has an abundance fitness of 0.165 ± 0.18.
With KKRTSIEVSVKGVLETHFLKCPKPAAQEISSLADSLQLEKEVVRVWFCNWRQKEKR [R50W] the abundance fitness was -0.999 ± 0.34.
For KKRTSIEVSVKGVLETHFLKCPKPAAQEISSLADSLQLEKEVVRVWFCNNRQKEKR [R50N], the abundance fitness was -0.771 ± 0.41.
For KKRTSIEVSVAGVLETHFLKCPKPAAQEISSLADSLQLEKEVVRVWFCNRRQKEKR [K11A], the abundance fitness was 0.778 ± 0.47.
In the case of KKRTSIEVSVSGVLETHFLKCPKPAAQEISSLADSLQLEKEVVRVWFCNRRQKEKR [K11S], the abundance fitness is reported as -0.498 ± 0.3.
KKRTSIEVSVGGVLETHFLKCPKPAAQEISSLADSLQLEKEVVRVWFCNRRQKEKR [K11G] gave an abundance fitness of -0.645 ± 0.35.
KKRTSIEVSVDGVLETHFLKCPKPAAQEISSLADSLQLEKEVVRVWFCNRRQKEKR [K11D] showed an abundance fitness of 0.119 ± 0.41.
In the case of KKRTSIEVSVKGVLETHFLKCPKPDAQEISSLADSLQLEKEVVRVWFCNRRQKEKR [A25D], the abundance fitness is reported as 0.545 ± 0.18.
KKRTSIEVSVKGVLETHFLKCLKPAAQEISSLADSLQLEKEVVRVWFCNRRQKEKR [P22L] gave an abundance fitness of -0.783 ± 0.15.
KKRTSIEVSVKGVLETHFLKCPKPAAQEIQSLADSLQLEKEVVRVWFCNRRQKEKR [S30Q] gave an abundance fitness of -0.163 ± 0.2.
KKRTSIEVSVKGVLETHFLKCPKPAAQEISSLADSLQLEKEVVRVWFCNRMQKEKR [R51M] showed an abundance fitness of -0.243 ± 0.21.
KKRTSIEVSVKGVLETHFLKCPKPAAQEISSLADSLQLEKEVVRVWFCNRGQKEKR [R51G] gave an abundance fitness of -0.804 ± 0.14.
KKRTDIEVSVKGVLETHFLKCPKPAAQEISSLADSLQLEKEVVRVWFCNRRQKEKR [S5D] gave an abundance fitness of 0.405 ± 0.26.
For KKRTTIEVSVKGVLETHFLKCPKPAAQEISSLADSLQLEKEVVRVWFCNRRQKEKR [S5T], the abundance fitness was 0.217 ± 0.15.
KKRTSIEVSVKGVLETHFLKCPKPAAQEISSLADSLQLEKEVVPVWFCNRRQKEKR [R44P] gave an abundance fitness of -0.865 ± 0.26.
Work on KKGTSIEVSVKGVLETHFLKCPKPAAQEISSLADSLQLEKEVVRVWFCNRRQKEKR [R3G] yielded an abundance fitness of 0.077 ± 0.1.

Variants of: B2
Test: as above
Conditions: Homo sapiens
KGCNCRRSGCLKNYCECYEAQIMCSSICKCIQCKNY [G32Q] gave an abundance fitness of -0.414 ± 0.4.
In the case of KGCNCRRSGCLKNYCECYEAQIMCSSICKCILCKNY [G32L], the abundance fitness is reported as -0.96 ± 0.13.
For KGCNCRRSGCLKNYCECYEAQIMCSSICKCIRCKNY [G32R], the abundance fitness was -0.249 ± 0.082.
Work on KGCNCRRSGCLKNYCECYEAQIMCSSICKCIWCKNY [G32W] yielded an abundance fitness of -0.349 ± 0.12.
With KGCNCRRSGCLKNYCECYEAQIMCSSICKCISCKNY [G32S] the abundance fitness was -0.087 ± 0.14.
Work on KGCNCRRSGCLKNYCECYEAQIMCSSICKCIVCKNY [G32V] yielded an abundance fitness of -0.443 ± 0.094.
For KGCNCRRSGCLKNYCECYEAQIMCSSICKCIPCKNY [G32P], the abundance fitness was -0.082 ± 0.12.
KGCNCRRSGCLKNYCECYEAQIMCSSICKCITCKNY [G32T] showed an abundance fitness of -0.655 ± 0.18.
